Residue numbers refer to the chain shown, from its start.
B1: 2LIG189 VHH-(His)6 (pHEN6C-PelB-PD-L1 VHH-(His)6) (VHH)
VHH: QVQLQESGGGLVQAGGSLRLSCAASGKIFSGNDMGWYRQAPGKQRELVGIITSGGITDYADAVKGRFTISRDNAKNMMYLQMNSLKPEDTAVYYCNMRDRTIWWGQGTQVTVSS
B2: 2LIG27 VHH-(His)6 (pHEN6C-PelB-PD-L1 VHH-(His)6) (VHH)
VHH: QVQLQESGGGVVQAGGSLRLSCTASGTIFSINRMDWFRQAPGKQRELVALITSDGTPTYADSAKGRFTISRDNTKKTVSLQMNSLKPEDTAVYYCHVSSGVYNYWGQGTQVTVSS
B3: 3LIG8 VHH-(His)6 (pHEN6C-PelB-PD-L1 VHH-(His)6) (VHH)
VHH: B2 VHH with V11L, A14P
B4: 2LIG97 VHH-(His)6 (pHEN6C-PelB-PD-L1 VHH-(His)6) (VHH)
VHH: B2 VHH with V11L, G16E
B5: 2LIG3 VHH-(His)6 (pHEN6C-PelB-PD-L1 VHH-(His)6) (VHH)
VHH: B2 VHH with V11L, R33H, T56F
B6: 2LIG99 VHH-(His)6 (pHEN6C-PelB-PD-L1 VHH-(His)6) (VHH)
VHH: B2 VHH with V11L, T58A
B7: 2LIG176 VHH-(His)6 (pHEN6C-PelB-PD-L1 VHH-(His)6) (VHH)
VHH: QVQLQESGGGLVQAGGSLRLSCAASESIFSIEAMGWYRQAPGKQRELVAAIFGGGFTNYADSVKGRFTISRDNANRTVYLQMNSLKPEDTAVYYCNADLVSGSSRLYDYWGQGTQVTVSS
B8: 2PD82 (VHH)
VHH: QVQLQESGGGLVQPGGSLRLSCTTSGFAFGSYDMGWVRQAPGKGPEWVSGINSGGRITDYADSVTGRFTISRDNAKNTLYLQMNSLKPEDTAVYYCAQGDRSSWHYYGMDYWGKGTQVTVSS
notes: PD-1 VHH
B9: 2PD8 (VHH)
VHH: QVQLQESGGGSVQAGDSLRLSCTASGRTFSSLGMGWFRQAPGKEREFVSAIAWNGASTYYTESVKGRFTISRDDAKNTVYLQMNSLKPTDTAVYFCAASGLGSVVVTANEYDYWGQGTQVTVSS
notes: PD-1 VHH
B10: 2PD27 (VHH)
VHH: B9 VHH with A14P, D16K, T23A
notes: PD-1 VHH

Molecular target: T1, recombinant extracellular domain of PD-L1 with C-terminal FLAG-tag (human, UniProt Q9NZQ7 19-238)
T1 construct: extracellular domain; The sentence itself names no species; Immobilised through the M2 anti-FLAG antibody; not shown: C-terminal FLAG-tag
Test: plate binding assay, VHH against hPD-1-hFc binding to immobilised PD-L1 ECD-FLAG

T1 sequence (Q9NZQ7 19-238): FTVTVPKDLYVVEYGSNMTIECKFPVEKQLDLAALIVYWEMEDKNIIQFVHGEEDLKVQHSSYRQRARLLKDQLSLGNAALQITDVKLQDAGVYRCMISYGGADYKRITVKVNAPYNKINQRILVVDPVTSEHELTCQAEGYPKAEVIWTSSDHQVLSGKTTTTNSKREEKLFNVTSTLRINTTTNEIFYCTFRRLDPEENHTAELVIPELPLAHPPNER

| Binder | IC50 [ng/mL] |
| --- | --- |
| B1 | 8.81 |
| B2 | 9.57 |
| B3 | 12.8 |
| B4 | 4.81 |
| B5 | 18.9 |
| B6 | 6.21 |
| B7 | 5.68 |

Molecular target: T2, PD-1 antigen (ELISA of Example 2) (human, UniProt Q15116 25-167, limits assumed)
Test: ELISA, signal on PD-1 antigen over control

T2 sequence (Q15116 25-167 limits assumed): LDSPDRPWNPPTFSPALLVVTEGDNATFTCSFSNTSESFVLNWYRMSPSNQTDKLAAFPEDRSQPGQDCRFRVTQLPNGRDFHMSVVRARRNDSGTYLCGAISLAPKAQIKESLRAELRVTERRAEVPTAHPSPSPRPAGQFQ

| Binder | A/control |
| --- | --- |
| B8 | 4.38 |
| B9 | 3.03 |
| B10 | 3.45 |

Molecular target: T2, PD-1 antigen (ELISA of Example 2)
Test: ELISA, signal on PD-1 antigen; further: test concentration or dose not given here

| Binder | ELISA A |
| --- | --- |
| B8 | 2.97 |
| B9 | 0.763 |
| B10 | 1.14 |

Molecular target: T3, cynomolgus PD-L1-Fc (SinoBiological) (cynomolgus, UniProt G7PSE7 19-238)
T3 construct: Bought; also called Cyno PD-L1; not shown: Fc carrier (and any linker) of the bought SinoBiological fusion
Test: BLI (Octet RED96), VHH on Penta-HIS sensor, cynomolgus PD-L1-Fc in solution

T3 sequence (G7PSE7 entry or part of it limits assumed): as the sequence (Q9NZQ7 19-238) above, with A33T, A34S, S62N, R68Q, Q82R, F173L, T185A, T192I, H215L counted along it

| Binder | Kd [nM] | koff [s⁻¹] | kon [M⁻¹ s⁻¹] |
| --- | --- | --- | --- |
| B1 | 3.8 | 0.000437 | 114000 |
| B2 | 8.74 | 0.0028 | 321000 |
| B3 | 5.98 | 0.00305 | 812000 |
| B4 | 9.16 | 0.00293 | 319000 |
| B5 | 0.89 | 0.000318 | 358000 |
| B6 | 1.01 | 0.000585 | 584000 |
| B7 | 11.3 | 0.00573 | 508000 |

Molecular target: T4, human PD-L1-Fc (SinoBiological) (human, UniProt Q9NZQ7 19-239)
T4 construct: Bought; not shown: Fc of a bought fusion protein
Test: BLI (Octet RED96), VHH on Penta-HIS sensor, human PD-L1-Fc in solution

T4 sequence (Q9NZQ7 19-239 limits assumed): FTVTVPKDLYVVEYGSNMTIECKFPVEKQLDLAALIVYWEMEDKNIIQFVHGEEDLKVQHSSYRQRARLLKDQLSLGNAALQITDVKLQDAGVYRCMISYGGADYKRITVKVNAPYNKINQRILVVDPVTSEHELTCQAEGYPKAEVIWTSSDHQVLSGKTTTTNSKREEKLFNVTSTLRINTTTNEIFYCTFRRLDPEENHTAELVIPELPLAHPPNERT

| Binder | Kd [nM] | koff [s⁻¹] | kon [M⁻¹ s⁻¹] |
| --- | --- | --- | --- |
| B1 | 3.03 | 0.000524 | 174000 |
| B2 | 7.51 | 0.0035 | 472000 |
| B3 | 8.77 | 0.00419 | 484000 |
| B4 | 4.35 | 0.00198 | 423000 |
| B5 | 1.19 | 0.000448 | 373000 |
| B6 | 0.875 | 0.000634 | 729000 |
| B7 | 6.87 | 0.00805 | 1.18e+06 |
